B1: pRNA-HER2apt-siMED1: 3-WJ pRNA nanoparticle bearing a HER2-targeting RNA aptamer and two different MED1 siRNAs; strands p1 SEQ ID NO: 3, p2 SEQ ID NO: 4 (nucleic acid)
chain 1: GGACAGUGAAAGUGAGUCAAAGGAUCAAUCAUGGCCAAAGAUGUUACUUUGAGAGCCUU
chain 2: GGCUCUCAAAGUAACAUCUAAGGCCAUGUGUAUGUGGGGGGAGGACGAUGCGGUCUGCUGUGCUUGAUAUGCCCCAGACGACUCGCCCCCCACAUACUUUGUUGAUCCAAUGACUCACUUUCACUGUCCUU
modifications: 2'-F modification; third strand may lack entry; pRNA-HER2apt-siMED1, p1; pRNA-HER2apt-siMED1, p2
B2: pRNA-HER2apt^mut-siMED1: control pRNA nanoparticle with mutant HER2 aptamer; strands p1 SEQ ID NO: 5, p2 SEQ ID NO: 6 (nucleic acid)
chain 1: GGACAGUGAAAGUGAGUCAAAGGAUCAAUCAUGGCCAAAGAUGUUACUUUGAGAGCCUU
chain 2: GGCUCUCAAAGUAACAUCUAAGGCCAUGUGUAUGUGGGAUGAGGAGUAUGAAGAUACCUGUACUUGAUAUGCCCCAGACGACAUUCCCCCCACAUACUUUGUUGAUCCAAUGACUCACUUUCACUGUCCUU
modifications: pRNA-HER2apt(mut)-siMED1, p1; pRNA-HER2apt(mut)-siMED1, p2

Tested on: MED1 mRNA
Test: MED1 mRNA level by real-time PCR in BT474 cells
Assay type: cell-based, human
Details: BT474, 10 μg/mL, 48 h, direct incubation
Experimental: FIG. 3A) BT474 cells were incubated with 10 μg/mL control and pRNA-HER2apt-siMED1 nanoparticles for 48 h, and MED1 mRNA level was determined by real-time PCR. FIG. 3B) BT474 cells were incubated directly with (as indicated by -) or transfected with indicated pRNAs using lipofectamine 2000. At 48 h post treatment, MED1 protein levels were determined by western blotting. FIG. 3C) BT474 cells were treated with 10 μg/mL pRNA nanoparticles for 48 h and assayed for cell viability by MTT assay. FIG. 3D) Cells were treated as above and seeded for migration, and FIG. 3E) invasion transwell assays. Scale bar: 50 μm. FIG. 3F) After pRNA treatment for 48 h, the mRNA levels of ERα target genes TFF-1, FIG. 3G) c-Myc, and FIG. 3H) cyclin D1 in BT474 cells were determined by real-time PCR.
Cell culture. […] The hydrodynamic diameter and Tm value of pRNA nanoparticles were determined using dynamic light scattering and TGGE assay, respectively, as previously described.^54 The AFM imaging of the pRNA nanoparticles was performed at the University of Nebraska Medical Center imaging facility as previously reported.^55 Briefly, the pRNA nanoparticles (5 μL) were deposited on APS modified mica ^56 for a total of 2 min of incubation time. […] After washing three times with PBS, the cellular uptake of pRNAs was determined using a BD LSRFortessa™ flow cytometer. • Real-time PCR. […]

Molecule	depletion of MED1 mRNA
B1	~70%
B2	not
